Two substances from paper PMC4361793 can be followed below.

In assay [1] the target is mussel foot protein-3 slow (mfp-3s), hydrophobic variant (Mytilus californianus). The assay can be described thus: QCM-D.
Assay [2] has the same target. The assay can be described thus: surface forces apparatus.

As for “rat-tail tropocollagen type-1 (COL1A1) (from UniProt P02454 152-1207; P02466 86-1125) (natural protein)”, in assay [1], the adsorbed hydrated mass after adding mfp-3s to TiO2 pre-exposed to COL1A1 turned out to be 209 ng/cm^2 and the total adsorbed hydrated mass of COL1A1/mfp-3s on TiO2 was 445 ng/cm^2. In assay [2], this substance yielded a cohesive energy Wc of mfp-3s films with COL1A1 between them of 7.2 mJ/m^2.
In turn, “mussel foot protein-3 slow (mfp-3s), hydrophobic variant (natural protein)” gave a cohesive energy Wc (tc ~ 2 min) in assay [2] of 5.4 mJ/m^2.
